Results: article PMC5788503, “Hepatitis B virus core protein allosteric modulators can distort and disrupt intact capsids” (eLife, 2018)

Biological target: the molecule itself
Experiment: negative stain electron microscopy; Cp149 assembly reaction, 50 mM HEPES, 300 mM NaCl, 10 uM dimer, no CpAM

B1: Hepatitis B virus core protein assembly domain, Cp149 (domain or fragment)
chain: MDIDPYKEFGATVELLSFLPSDFFPSVRDLLDTAAALYRDALESPEHCSPHHTALRQAILCWGDLMTLATWVGTNLEDPASRDLVVSYVNTNVGLKFRQLLWFHISCLTFGRETVLEYLVSFGVWIRTPPAYRPPNAPILSTLPETTVV
notes: Hepatitis B virus subtype adyw core protein (Cp), assembly domain: the first 149 residues of the 183-residue protein; Purified as a homodimer; Dimers were assembled into capsids at 10 uM dimer in 300 mM NaCl, 50 mM HEPES pH 7.5; The apo capsid comparator PDB 1QGT is cited without its construct being named; also called purified dimeric assembly domain; apo-capsids; source: E. coli, purified by …
- binding result: binds
